Series [1] has as its system CC(=O)NCCCNCCCCNCCCN
In words: steady-state oxygen consumption, oxygen electrode. It counts as biochemical, Saccharomyces cerevisiae. The conditions noted are these: pH 9.0, 25 °C, 1.3 mM oxygen, 10% glycerol.

The subject of series [2] is NCCCNCCCCNCCCN
Briefly: steady-state oxygen consumption, oxygen electrode. In kind it is biochemical, Saccharomyces cerevisiae. The conditions noted are these: pH 9.35, 25 °C, 1.3 mM oxygen, 10% glycerol, pH 9.35.

Series [3] deals with Lys315 (UniProt position 315, FGTNNKIFLEF). Briefly: kinetics. The conditions noted are these: Oxidative half-reaction, N1-acetylspermine as amine substrate; cited from earlier work.

As for “Fms1 (Saccharomyces cerevisiae S288C; H67A)”, in series [1] (pH 9.0), the Km was 50 ± 13 µM, the kcat was found to be 2.7 ± 0.1 s⁻¹ and the kcat/Km stood at 54000 ± 14000 M⁻¹ s⁻¹. Further, in series [2], the Km came to 1740 ± 310 µM, the kcat is 0.44 ± 0.03 s⁻¹ and the kcat/Km stood at 250 ± 50 M⁻¹ s⁻¹.

On to “Fms1 (Saccharomyces cerevisiae S288C; H67N)”, for which, in series [1], the Km turned out to be 18.6 ± 4.0 µM, the kcat was 1.35 ± 0.04 s⁻¹ and the kcat/Km is 72500 ± 15000 M⁻¹ s⁻¹.

For the substance “Fms1 (Saccharomyces cerevisiae S288C; H67Q)”, in series [1] (pH 9.0), the Km was found to be 47 ± 6 µM, the kcat was 3.9 ± 0.1 s⁻¹ and the kcat/Km stood at 83000 ± 11000 M⁻¹ s⁻¹. In addition, in series [2], the Km was determined as 165 ± 25 µM and the kcat came to 0.88 ± 0.01 s⁻¹.

Regarding “N1-acetylpolyamine oxidase (mouse PAO) (Mus musculus)”, the pKa in series [3] was 7.0.

(Values after article PMC3378762.)
